# In the PETadex activity labels (doi:10.1002/cssc.202101062):
# Residue numbers refer to the chain shown, from its start.
# B1: unnamed (protein)
# chain: MANPYERGPAPTTSSIEASRGPFAIASVTVSRSSVSGFGGGTIYYPRDTSEGTFGAVAIAPGFTADEGSMAWYGPRIASQGFVVFTIDTITRLDQPDSRGRQLLAALDYLTQRSSVRSRIDSSRLAVMGHSMGGGGSLEASVSRPSLKAAIPLTPWNLKKNWRDVRVPTLIVGAESDSIASVRTHAEPFYESIPSTTNKAYLELNNATHFAPNISNTTIAKYSISWLKRFVDNDTRYEQFLCPPPRPDRDIEEYRSTCPH
# B2: unnamed (protein)
# chain: MDNPYERGPDPTTQSVEAARGPYAVSQITVGGQFGSYSGGTIYYPTSTADGKFGAVAIAPGFLSFQSSVAWLGPRLASQGFVVMTIDTGTIFDQPAQRGDQLLDALDFLTQRSSVKDRIDPNRLAVAGWSMGGGGSLEAAADRPSLKAAIPMAGWNLNTNWSRLTTPVLVVGVQNDLIAPVGSHSEPFYNSIRSEKAYLELAGGSHFTVTSANTPQAKLMISWLKRFVDNDTRYEQFICPGPSRGFSVSEYRSTCPF
# B3: unnamed (protein)
# chain: B2 chain with D2E, L76I, M131W, G182A, S183M, F257Y
# B4: unnamed (protein)
# chain: B2 chain with A49T, L76I, G182A, S183M
# B5: unnamed (protein)
# chain: MANPYERGPDPTVQSIEAVRGPFSVSETNVSRLVVTGFGGGTIYYPRDTSQGTFGAVAIAPGFTASEGSMAWYGPRIASQGFVVFTIDTLTRLDQPDSRGRQLLAALDYLTQRSSVRSRIDSSRLAVMGHSMGGGGSLEASESRPSLKASIPLTPWNLKKNWRNNRVPTLIVGAENDSIASVRTHAEPFYESIPSTTNKAYLELNNATHFAPNISNTTIAKYSISWLKRFVDNDTRYEQFLCPPPRPDRDIEEYRCTCPY
# Substrate: PET
# Test: Proxy for plastic degradation [Weight/mass loss]
# Conditions: pH 8; 45 °C
row,Protein,Proxy for plastic degradation [%]
1,B1,1
2,B2,1
3,B3,0.5
4,B4,2
5,B5,2

# Same assay, conditions: pH 8; 50 °C
row,Protein,Proxy for plastic degradation [%]
1,B1,2.5
2,B2,1.5
3,B3,1
4,B4,3
5,B5,2.5

# Same assay, conditions: pH 8; 55 °C
row,Protein,Proxy for plastic degradation [%]
1,B1,1
2,B2,1
3,B3,0.5
4,B4,5
5,B5,1

# Same assay, conditions: pH 8; 60 °C
row,Protein,Proxy for plastic degradation [%]
1,B1,0.5
2,B2,1
3,B3,0.5
4,B4,8
5,B5,0.5

# Substrate: gfPET
# Test: Proxy for plastic degradation [Released monomer concentration (HPLC/LC-MS) (TPA+MHET+BHET)]
# Conditions: 40 °C
row,Protein,Proxy for plastic degradation [mmol/h]
1,B1,0
2,B2,0
3,B3,0
4,B4,0
5,B5,0

# Same assay, conditions: 50 °C
row,Protein,Proxy for plastic degradation [mmol/h]
1,B1,0.38
2,B2,0.2
3,B3,0.1
4,B4,0.1
5,B5,0.2

# Same assay, conditions: 55 °C
row,Protein,Proxy for plastic degradation [mmol/h]
1,B1,0.2
2,B2,0.21
3,B3,0.13
4,B4,0.18
5,B5,0.22

# Same assay, conditions: 60 °C
row,Protein,Proxy for plastic degradation [mmol/h]
1,B1,0.1
2,B2,0.1
3,B3,0.05
4,B4,0.1
5,B5,0.19

# Same assay, conditions: 65 °C
row,Protein,Proxy for plastic degradation [mmol/h]
1,B1,0.05
2,B2,0
3,B3,0
4,B4,0
5,B5,0.1

# Same assay, conditions: 70 °C
row,Protein,Proxy for plastic degradation [mmol/h]
1,B1,0.05
2,B2,0
3,B3,0
4,B4,0
5,B5,0.08

# Same assay, conditions: 75 °C
row,Protein,Proxy for plastic degradation [mmol/h]
1,B1,0.05
2,B2,0
3,B3,0
4,B4,0
5,B5,0.06

# Same assay, conditions: 80 °C
row,Protein,Proxy for plastic degradation [mmol/h]
1,B1,0.05
2,B2,0
3,B3,0
4,B4,0
5,B5,0.05

# Same assay, conditions: 85 °C
row,Protein,Proxy for plastic degradation [mmol/h]
1,B1,0.05
2,B2,0
3,B3,0
4,B4,0
5,B5,0.05
